Laboratory results as given in paper PMC10786891, “Massively parallel profiling of RNA-targeting CRISPR-Cas13d”.
Substitutions are numbered along the chain they refer to. Names may count otherwise.

T1: EsCas13d, nuclease-dead (Eubacterium siraeum, UniProt B0MS50, R295A;H300A;R849A;H854A)
T1 sequence: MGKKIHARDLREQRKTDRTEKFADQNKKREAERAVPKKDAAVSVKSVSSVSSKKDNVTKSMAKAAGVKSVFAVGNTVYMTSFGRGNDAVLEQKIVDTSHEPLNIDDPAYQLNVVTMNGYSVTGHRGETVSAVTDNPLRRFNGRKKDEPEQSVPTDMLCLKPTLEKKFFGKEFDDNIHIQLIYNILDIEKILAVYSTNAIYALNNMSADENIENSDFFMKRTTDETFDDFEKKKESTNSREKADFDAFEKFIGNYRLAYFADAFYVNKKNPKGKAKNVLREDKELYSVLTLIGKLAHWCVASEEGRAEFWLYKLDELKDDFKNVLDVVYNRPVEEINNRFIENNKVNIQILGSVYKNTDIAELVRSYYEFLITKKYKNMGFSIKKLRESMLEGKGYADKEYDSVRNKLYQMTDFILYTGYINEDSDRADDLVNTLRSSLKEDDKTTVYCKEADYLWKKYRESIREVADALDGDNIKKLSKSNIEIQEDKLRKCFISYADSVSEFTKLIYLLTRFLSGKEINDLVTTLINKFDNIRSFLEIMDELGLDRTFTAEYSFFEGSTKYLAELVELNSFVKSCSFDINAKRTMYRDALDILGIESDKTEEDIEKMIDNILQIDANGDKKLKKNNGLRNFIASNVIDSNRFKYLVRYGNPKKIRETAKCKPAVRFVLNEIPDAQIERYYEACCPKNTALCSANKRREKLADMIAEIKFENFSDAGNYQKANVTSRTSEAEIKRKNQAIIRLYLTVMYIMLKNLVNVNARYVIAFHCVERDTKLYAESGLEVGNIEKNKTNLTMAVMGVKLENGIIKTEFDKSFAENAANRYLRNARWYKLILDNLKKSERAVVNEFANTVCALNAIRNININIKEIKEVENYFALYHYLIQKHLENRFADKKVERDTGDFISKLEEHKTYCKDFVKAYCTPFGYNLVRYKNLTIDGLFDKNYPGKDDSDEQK

B1: target 1 insA 3' of 12,insA 3' of 4 (mixed)
RNA 1: CACCCGUGCAAAAAUGCAGGGGUCUAAAACUGAGCGGAUAACCUCUCUAUGG
RNA 2: GGGAAUGGAUCCACAUCUACGAAUUCGUACCAUAGAGAGGAUUAUCCGCAUCACCGAGAUCGGAAGAGCACACGU
B2: target 1 C2A,C21U (mixed)
RNA 1: B1 RNA 1
RNA 2: GGGAAUGGAUCCACAUCUACGAAUUCGUACUAUAGAGAGGUUAUCCGCUAACCGAGAUCGGAAGAGCACACGU
B3: target 1 insA 3' of 12,insC 3' of 3 (mixed)
RNA 1: B1 RNA 1
RNA 2: B1 RNA 2 with A50U, U51C
B4: target 1 G12C,G15A (mixed)
RNA 1: B1 RNA 1
RNA 2: B2 RNA 2 with U31C, G37A, G40C, A50C
B5: target 2 MT 5'PFS UAC 3'PFS CAA (mixed)
RNA 1: CACCCGUGCAAAAUUGCAGGGGUCUAAAACCUUCUCCAAAUUGUUUCAUCCU
RNA 2: GGGAAUGGAUCCACAUCUACGAAUUCUACAGGAUGAAACAAUUUGGAGAAGCAAAGAUCGGAAGAGCACACGU
B6: target 2 MT 5'PFS GUU 3'PFS CGA (mixed)
RNA 1: B5 RNA 1
RNA 2: B5 RNA 2 with U27G, A28U, C29U, A53G
B7: target 2 MT 5'PFS UAC 3'PFS CAC (mixed)
RNA 1: B5 RNA 1
RNA 2: B5 RNA 2 with A54C
B8: target 2 MT 5'PFS AUC 3'PFS AUG (mixed)
RNA 1: B5 RNA 1
RNA 2: B5 RNA 2 with U27A, A28U, C52A, A53U, A54G
B9: target 2 MT 5'PFS GUU 3'PFS CGU (mixed)
RNA 1: B5 RNA 1
RNA 2: B5 RNA 2 with U27G, A28U, C29U, A53G, A54U
B10: target 2 MT 5'PFS AAC 3'PFS CUG (mixed)
RNA 1: B5 RNA 1
RNA 2: B5 RNA 2 with U27A, A53U, A54G
B11: target 2 MT 5'PFS AAA 3'PFS ACG (mixed)
RNA 1: B5 RNA 1
RNA 2: B5 RNA 2 with U27A, C29A, C52A, A53C, A54G
B12: target 2 MT 5'PFS UAC 3'PFS ACC (mixed)
RNA 1: B5 RNA 1
RNA 2: B5 RNA 2 with C52A, A53C, A54C
B13: target 2 MT 5'PFS AAC 3'PFS AAU (mixed)
RNA 1: B5 RNA 1
RNA 2: B5 RNA 2 with U27A, C52A, A54U
B14: target 2 MT 5'PFS GCG 3'PFS CCG (mixed)
RNA 1: B5 RNA 1
RNA 2: B5 RNA 2 with U27G, A28C, C29G, A53C, A54G
B15: target 2 MT 5'PFS AAU 3'PFS AGU (mixed)
RNA 1: B5 RNA 1
RNA 2: B5 RNA 2 with U27A, C29U, C52A, A53G, A54U
B16: target 2 MT 5'PFS AAA 3'PFS ACU (mixed)
RNA 1: B5 RNA 1
RNA 2: B5 RNA 2 with U27A, C29A, C52A, A53C, A54U
B17: target 2 MT 5'PFS UCG 3'PFS CGA (mixed)
RNA 1: B5 RNA 1
RNA 2: B5 RNA 2 with A28C, C29G, A53G
B18: target 2 MT 5'PFS GUU 3'PFS CGC (mixed)
RNA 1: B5 RNA 1
RNA 2: B5 RNA 2 with U27G, A28U, C29U, A53G, A54C
B19: target 2 MT 5'PFS AAG 3'PFS UCG (mixed)
RNA 1: B5 RNA 1
RNA 2: B5 RNA 2 with U27A, C29G, C52U, A53C, A54G
B20: target 2 MT 5'PFS UCA 3'PFS UCC (mixed)
RNA 1: B5 RNA 1
RNA 2: B5 RNA 2 with A28C, C29A, C52U, A53C, A54C
B21: target 2 MT 5'PFS ACA 3'PFS UGU (mixed)
RNA 1: B5 RNA 1
RNA 2: B5 RNA 2 with U27A, A28C, C29A, C52U, A53G, A54U
B22: target 2 MT 5'PFS UCG 3'PFS CGG (mixed)
RNA 1: B5 RNA 1
RNA 2: B5 RNA 2 with A28C, C29G, A53G, A54G
B23: target 2 MT 5'PFS AUU 3'PFS CCA (mixed)
RNA 1: B5 RNA 1
RNA 2: B5 RNA 2 with U27A, A28U, C29U, A53C
B24: target 2 MT 5'PFS UAC 3'PFS CAU (mixed)
RNA 1: B5 RNA 1
RNA 2: B5 RNA 2 with A54U
B25: target 2 MT 5'PFS AUU 3'PFS CCG (mixed)
RNA 1: B5 RNA 1
RNA 2: B5 RNA 2 with U27A, A28U, C29U, A53C, A54G
B26: target 2 MT 5'PFS GGC 3'PFS UAU (mixed)
RNA 1: B5 RNA 1
RNA 2: B5 RNA 2 with U27G, A28G, C52U, A54U
B27: target 2 MT 5'PFS UCG 3'PFS CGC (mixed)
RNA 1: B5 RNA 1
RNA 2: B5 RNA 2 with A28C, C29G, A53G, A54C
B28: target 2 MT 5'PFS UAC 3'PFS ACG (mixed)
RNA 1: B5 RNA 1
RNA 2: B5 RNA 2 with C52A, A53C, A54G
B29: target 2 MT 5'PFS GUU 3'PFS CGG (mixed)
RNA 1: B5 RNA 1
RNA 2: B5 RNA 2 with U27G, A28U, C29U, A53G, A54G
B30: target 2 MT 5'PFS AAC 3'PFS AAC (mixed)
RNA 1: B5 RNA 1
RNA 2: B5 RNA 2 with U27A, C52A, A54C
B31: target 2 MT 5'PFS AAC 3'PFS CUC (mixed)
RNA 1: B5 RNA 1
RNA 2: B5 RNA 2 with U27A, A53U, A54C
B32: target 2 MT 5'PFS UAC 3'PFS ACA (mixed)
RNA 1: B5 RNA 1
RNA 2: B5 RNA 2 with C52A, A53C

These binders were tested against T1, EsCas13d, nuclease-dead (assay: crRNA (strand 1, pre-loaded); Mg2+; 40 mM Tris-HCl pH 7.5, 150 mM NaCl, 6 mM MgCl2, 1 mM DTT, 0.1% Tween-20, 0.2 mg/ml BSA; 25 C; 10 min per concentration, then washed). Conditions: tags: His6-TwinStrep-SUMO cleaved; N-terminal SNAP kept (SNAP-Surface 488); label: 3' end held by stalled T7 RNA polymerase.

Binder	Kd
B1	19.2 ± 1.2 nM
B2	8.2 ± 0.5 nM
B3	26.6 ± 3 nM
B4	50 ± 16 nM
B5	6 ± 1.1 nM
B6	15.2 ± 1.5 nM
B7	5.3 ± 1 nM
B8	~70 nM
B9	12.9 ± 0.9 nM
B10	7.3 ± 1.3 nM
B11	4.4 ± 0.5 nM
B12	9.8 ± 2.1 nM
B13	6.1 ± 1.5 nM
B14	12.2 ± 1 nM
B15	4.9 ± 0.5 nM
B16	9.5 ± 2.9 nM

Binder	Kd
B17	33 ± 15 nM
B18	11.4 ± 0.7 nM
B19	4.4 ± 0.7 nM
B20	5.7 ± 0.8 nM
B21	9.6 ± 2.5 nM
B22	55 ± 16 nM
B23	14.8 ± 2.7 nM
B24	10 ± 2.3 nM
B25	9.8 ± 1.1 nM
B26	12.4 ± 1.5 nM
B27	30 ± 6 nM
B28	5.6 ± 1.3 nM
B29	17 ± 1.6 nM
B30	8.8 ± 3.5 nM
B31	9 ± 3 nM
B32	4.9 ± 1.2 nM
